Source: the DeepSol protein solubility set

experiment: soluble on expression in E. coli; label from the status in PepcDB or PDB records

Sequence | soluble on expression in E. coli
MWSEYSLEVVDAVARNGSFSAAAQELHRVPSAVSYTVRQLEEWLAVPLFERRHRDVELTAAGAWFLKEGRSVVKKMQITRQQCQQIANGWRGQLAIAVDNIVRPERTRQMIVDFYRHFDDVELLVFQEVFNGVWDALSDGRVELAIGATRAIPVGGRYTFRDMGMLSWSCVVASHHPLALMDGPFSDDTLRNWPSLVREDTSRTLPKRITWLLDNQKRLVVPDWESSATCISAGLCIGMVPTHFAKPWLNEGKWVALELENPFPDSACCLTWQQNDMSPALTWLLEYLGDSETLNKEWLREPEETPATGD | not soluble
MWTGKTGNMLGALALTLTDRIRAEVNVSLDAGGETAAALVLLGANPALTVAEIAEALGLTHSGAVRLVDRLCVSGLAERQSGPDARAVHVRLTSAGARQRRRALLRRQAVLDHALQALSPSEEAAFAQMLDKLLRRMLDFPDQGHRFCRLCDEDLCVPHGCPVEERLVELLERQARETGL | not soluble
MYEVTKFGGEGKRLEDYREIIGDEALEAIKAKAENLKDKSFVHVNSTSFGGGVAEILHNLVPLMRDVGIDARWFVIEGTNEFFNVTKSFHNALQGNKELRLTEEMKKLYLEINKKNAEDIDLTQFDYVLIHDPQPAPLIEFYEKRQPWIWRCHIDLSDPNLEFWKFLRQFVEKYDRYIFHMEEYVQEDLNQEKVVIMPPSIDPLSEKNMELEHHHHHH | not soluble
MYFPIVALIGRYQDTGLDAPLTALAQMLTQAGRRVLVEAETARNAGVSGYPVADWDEIGRTATLAVVMGGDGTVLGAARHLAPYGVPLIGINHGRLGFITDIPLQDAHDALGRVLEGNYQAEDRMLLQGGVWRGEQQMYSASAVNDVVLNRAGRGGMIEVRVELDGAFMYTQRADGLIIATPTGSTAYSLSANGPILHPGMNAMVLVPVAPQTLSNRPIVIPDSGVLNMTLTAMGRVEIGASVHFDMQTWSDLQPGDRITVQRAPHTIRFVHPEGYSFFSTLRRKLHWNLMPQATDNLELEHHHHHH | soluble
MYGVLVWPPEDLRRFMEELQAARGVRGFGPPHLNLRQPFDWPYEEEALRIALAGILRGHPPFRVRLGDWRFFPQGVVYLRAYGGGAFRRLYHALEPLAPPLKEIEGPSYIPHLTLALGLSPEEAKALAQSLPPPPRRSFLVREAALVRDEGEGLVEVARFPLGPSPER | soluble
MYHVPLIPRDAGREETIFRINQSLQKLLRVSDEIFDRVEHRITRIHGKAEAIDRRTEVLEKKLESLQESDKVITFTLPRQLPKLPEEPPTSTSLFRINIDTEHFPGSEELPAFRRADDHVLRPCEPIDFTYELNKPDKFFLTSQVLKEYEQKGWERYKKRLLGGLRELSRSPEHIAELFYAGTSIPAFEGVSGDFSKKALDADDDGGTSRSGRTTDELAQLRLHEQLLEDTALSSTLMQEDSLDDNHPLAFRINFNEKKKKTAKMVEMPDSLPNLKGHAHDFTLRDPEIDEDRLLDILPADDQIPEASEPTEAEADAPTTFILPPPPPPMKLDPSPQPAATPVEITEIPPIISPPAPPPPPPPPPPPPPPQTPSASSSVTFSPTKSVDGGRSDLMAAIRAAGGAGNAKLSRIAEKPKRKGKFDGILESSALLGASETPRNSAPAPDGGGGGGDLMSALSKALDARRKAINGKVEAQPPAKVSSTIPAPPNFDDEEWD | not soluble
MYILLCCAAGMSTSMVVRKMQEEAKKQGKDYKIKAVDSELVKLEIKNADVVLIGPQVKYLFPAVQFLAKSYDIPVAIIEQRDYGMCDGLKVLKQAEQLVLA | not soluble
MYKDFANFIRTNKADLLNNWMNEMEKQSDQLINDIAKEAMYEETSKEFVDLIVSNVTENGSKFNEKLDDFAEKVVHLGWPIHFVTTGLRVFGLLVYTAMRDEDLFLKREEKPEDDAYYRFETWLSSMYNKVVTAYADTWEKTVSIQKSALQELSAPLLPIFEKISVMPLIGTIDTERAKLIIENLLIGVVKNRSEVVLIDITGVPVVDTMVAHHIIQASEAVRLVGCQAMLVGIRPEIAQTIVNLGIELDQIITTNTMKKGMERALALTNREIVEKEG | not soluble
MYKIMPLKVAEISVPLGVTIMMGDMRVMATGPVYVWVIDGGDEKIVVDSGVEEAKNGMFHGFPGKGGGEKGLREAMEKVNLKPEDVDKLIITHLHFDHAANAKLFTNARIYVQKREWESALNPPLHYRQTYDSSMLYPLEEMDLCLIDGDVEIAEGVKAVLLPGHTKGLQGVAVETEKGTYLLAADHFYTYFNFFPPKQPIQMTDTAGNTVEIPTSPLPFLPPGLHVDLSEWYESCFKALSVAKKANILPGHDPSLEGRVFPLEHHHHHH | not soluble
MYKLNLDIQAFLANDWQQAPKVFKGAFPDFEDPIAADELAGLACEEEVSSRVVVTKGNDWEVISGPFEDYDRFGETHWQLLVQAVNHWYPESQPLVEAFRFLPDWRFDDLMVSFATPQGGVGPHIDNYDVFIIQGEGQRRWTVGPKGNYQRRGGVTTSPLIEDFEPIIDVVLEKGDVLYIPPGFPHQGETLTLALSYSMGYRAPSQQELAGQIADQLMDEDKGHKRFIAVDGAASHGTVSLAEQQGIMQLIRDLCNDTDNVVKVLGKLLSQNRFDLDIQEDESIDADALVEALNEGAVLMRIGGLKVLKMEGDSQARLFVAGESVIIEGASEEELIEVSNSVNVNAELAQLPHWQGFFVQMLQKGYFYLGED | soluble
MYKYFDAHCHYSYLKKKYEGYLIAAVSMDYQSAMDTFSLKSDNVLVGVGIHPWRVHEEDLTRILSLIIKADFVGEVGLDYRFAKAPKELQIKYFEEQIKAGEGKLINVHALDAWKDAFNILVKNDVKSAIFHWYTGPINLLKDIESAGYFISINPSVSFQKKHQEVLKNVDLKNVLTESDGGYEYRGKLLEPSDIPNAISFMSNFLGIEEYKLVRIISNNFFKAYGVNPVNN | not soluble
MYNNSELRKIQQKKLEILIDIAKFCNENKIRYWLDSGTLLGAVRHGGFIPWDDDIDIIIMQEDAKFLKENYKSENFEIVNTDEEGINFYKVISKKEQVQVGDSIAELDIDIFLVTYYPDSLALKFWNSFFHLKKNRIDRFSFSLFFTNILINLKRKLEKTKLFNYKNIEKKISYILDEAKKKNKAMPNIAYTPDCGFYLIIWREEEIFPLKKMKFEGIEFSIPNNYDTYLKKMYYSYMDLPPKEKRVPEHYQDKELKLIIKLEHHHHHH | not soluble
MYQKKDRACRIRRKQCKLFGDWQKSVITQLKTIQDKNISIHKAFGCMIRLAANLFYAHSKIIHFMSEEAGEDAQRKAAEREAKKAEVRKRLEEAGNKKKAKKGFLTPERKKKLRKLLMVKAAEDLKRQQLLKEQERQKALADRTISLPNVDSIDDKGQLEKIYNDLWARLTQLEEEKYDINYVVSQTEAEINSLTIEVNDLRGKFVKPSLKKVSKYDNKFKKSGESKAGTKEDFRANLKIVKKDVMEAIVNVKKKDDKPDWSKKNKDAKAEDSAPAAVAPEAEPVAEEAEAEPEAEEEEGEEEEEE | not soluble
MYQLEKEPIVGAETFYVDGAANRETKLGKAGYVTNRGRQKVVTLTDTTNQKTELQAIYLALQDSGLEVNIVTDSQYALGIITQWIHNWKKRGWKTADKKPVKNVDLVNQIIEQLIKKEKVYLAWVPAHKGIGGNEQVDKLVSAGIRKVLF | soluble
MYQQSSFKENLIHWFDENQREMPWRQTTNPYYIWLSEVMLQQTQVKTVIDYYHRFVERFPTVEVLSQASEDEVLKYWEGLGYYSRARNFHTAIKEVHDKYEGLVPKDPDQFKALKGVGPYTQAAVMSIAYNVPLATVDGNVFRVWSRLNDDYRDIKLQSTRKSYEQELLPYVTTEAGTFNQAMMELGALICTPKNPLCLFCPVQENCEAFDKGTFEKLPVKSKNVSKKVIEQSVFLIRNNQGQYLLQKRSEKLLHGMWQFPMFESEHARRKMTEKIGHDIQPVETPIFELKHQFTHLTWKIKVYAVSGAINIETLPDDMIWFDLSDRDQYTFPVPMSKIYQFING | not soluble
MYQVIRMYGAMEPWWFLDDWKEDITKVLEFDNYHEALQCYQKEWAKLRRRYSDFNSHGDIMTAFWNKQDQHWCEECGDYVQRYHSLALLTDWQETPSSWFRPTFTKQNDTPFRSKCFIKQKNEQGQNLEHHHHHH | not soluble
